This note sets out measurements from US20140199327A1, “METHODS OF PROMOTING DIFFERENTIATION” (Genentech, Inc., priority 2011, published 2014).

The target of experiment [1] is T1, USP1-Flag (wild-type human USP1 with in-frame C-terminal Flag epitope) (human, UniProt O94782 1-785).
T1 construct: Synthesised human USP1 cDNA in pRK2001, expressed in 293T cells; also called USP1 wild-type; WT
T1 sequence: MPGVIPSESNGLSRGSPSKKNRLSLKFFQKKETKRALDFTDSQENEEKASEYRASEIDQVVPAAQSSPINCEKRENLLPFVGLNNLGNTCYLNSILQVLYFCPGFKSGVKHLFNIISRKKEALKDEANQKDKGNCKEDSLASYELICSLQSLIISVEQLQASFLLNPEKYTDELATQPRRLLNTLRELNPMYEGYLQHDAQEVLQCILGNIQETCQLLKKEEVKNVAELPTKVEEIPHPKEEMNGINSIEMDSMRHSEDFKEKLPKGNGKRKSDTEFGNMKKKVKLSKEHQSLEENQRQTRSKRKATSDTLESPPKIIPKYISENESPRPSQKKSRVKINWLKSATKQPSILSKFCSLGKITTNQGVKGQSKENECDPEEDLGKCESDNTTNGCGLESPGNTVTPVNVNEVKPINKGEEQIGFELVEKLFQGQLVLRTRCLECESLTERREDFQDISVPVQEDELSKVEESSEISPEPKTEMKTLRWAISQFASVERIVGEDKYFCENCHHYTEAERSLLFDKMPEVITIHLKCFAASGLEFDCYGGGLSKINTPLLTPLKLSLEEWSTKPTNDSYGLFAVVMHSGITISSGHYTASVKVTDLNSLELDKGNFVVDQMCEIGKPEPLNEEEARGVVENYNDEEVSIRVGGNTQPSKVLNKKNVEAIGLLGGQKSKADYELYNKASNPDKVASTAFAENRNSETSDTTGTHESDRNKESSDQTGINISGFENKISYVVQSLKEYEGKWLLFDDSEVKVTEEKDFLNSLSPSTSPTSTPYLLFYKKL
Put plainly: Flag immunoprecipitation of DUBs from 293T cells cotransfected with ID2, MG-132 treated; blot for ID2 (FIG. 2B). How it is done: (§1) FIG. 2. […] (A) Western blot (WB) analysis of 293T transfected with Flag-tagged deubiquitinases (DUBs) or an empty vector (−). Where indicated, cells were treated with […] MG-132 for 4 hr. (B) Flag-tagged DUBs were immunoprecipitated (IP) from 293T cells cotransfected with ID2 and treated with […] MG-132 for 6 hr.

Experiment [2] concerns the target USP9Y-Flag (human USP9Y with C-terminal Flag epitope) (human, UniProt O00507 1-2555, limits assumed). Nature of the experiment: Flag immunoprecipitation of DUBs from 293T cells cotransfected with ID2, MG-132 treated (FIG. 2B). The protocol:
as §1

Experiment [3] concerns the target T2, USP45-Flag (human USP45 with C-terminal Flag epitope) (human, UniProt Q70EL2 1-814, limits assumed).
T2 sequence (looked up): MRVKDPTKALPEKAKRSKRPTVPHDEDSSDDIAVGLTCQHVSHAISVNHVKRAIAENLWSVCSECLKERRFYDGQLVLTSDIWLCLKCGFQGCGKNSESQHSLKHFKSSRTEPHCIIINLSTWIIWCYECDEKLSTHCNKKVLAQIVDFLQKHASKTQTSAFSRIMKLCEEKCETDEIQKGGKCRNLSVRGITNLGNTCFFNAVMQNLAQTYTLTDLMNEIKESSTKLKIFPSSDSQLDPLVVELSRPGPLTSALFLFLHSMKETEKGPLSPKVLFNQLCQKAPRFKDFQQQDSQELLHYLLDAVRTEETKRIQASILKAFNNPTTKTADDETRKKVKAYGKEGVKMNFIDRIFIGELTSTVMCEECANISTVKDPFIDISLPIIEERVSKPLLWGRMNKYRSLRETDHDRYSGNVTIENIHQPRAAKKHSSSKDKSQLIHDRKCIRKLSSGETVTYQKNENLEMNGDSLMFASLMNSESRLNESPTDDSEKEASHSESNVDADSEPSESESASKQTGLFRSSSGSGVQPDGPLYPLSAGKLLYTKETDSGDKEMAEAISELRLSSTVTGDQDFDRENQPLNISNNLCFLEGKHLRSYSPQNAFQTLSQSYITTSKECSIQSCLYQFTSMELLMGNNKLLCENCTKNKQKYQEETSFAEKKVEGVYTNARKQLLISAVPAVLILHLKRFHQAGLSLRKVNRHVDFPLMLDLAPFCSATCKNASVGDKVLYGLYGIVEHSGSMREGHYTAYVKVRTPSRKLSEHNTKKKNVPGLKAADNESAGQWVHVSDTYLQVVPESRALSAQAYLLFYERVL
The description is as above. How it is done: as §1

USP9Y-Flag (human USP9Y with C-terminal Flag epitope), sequence (O00507 whole entry): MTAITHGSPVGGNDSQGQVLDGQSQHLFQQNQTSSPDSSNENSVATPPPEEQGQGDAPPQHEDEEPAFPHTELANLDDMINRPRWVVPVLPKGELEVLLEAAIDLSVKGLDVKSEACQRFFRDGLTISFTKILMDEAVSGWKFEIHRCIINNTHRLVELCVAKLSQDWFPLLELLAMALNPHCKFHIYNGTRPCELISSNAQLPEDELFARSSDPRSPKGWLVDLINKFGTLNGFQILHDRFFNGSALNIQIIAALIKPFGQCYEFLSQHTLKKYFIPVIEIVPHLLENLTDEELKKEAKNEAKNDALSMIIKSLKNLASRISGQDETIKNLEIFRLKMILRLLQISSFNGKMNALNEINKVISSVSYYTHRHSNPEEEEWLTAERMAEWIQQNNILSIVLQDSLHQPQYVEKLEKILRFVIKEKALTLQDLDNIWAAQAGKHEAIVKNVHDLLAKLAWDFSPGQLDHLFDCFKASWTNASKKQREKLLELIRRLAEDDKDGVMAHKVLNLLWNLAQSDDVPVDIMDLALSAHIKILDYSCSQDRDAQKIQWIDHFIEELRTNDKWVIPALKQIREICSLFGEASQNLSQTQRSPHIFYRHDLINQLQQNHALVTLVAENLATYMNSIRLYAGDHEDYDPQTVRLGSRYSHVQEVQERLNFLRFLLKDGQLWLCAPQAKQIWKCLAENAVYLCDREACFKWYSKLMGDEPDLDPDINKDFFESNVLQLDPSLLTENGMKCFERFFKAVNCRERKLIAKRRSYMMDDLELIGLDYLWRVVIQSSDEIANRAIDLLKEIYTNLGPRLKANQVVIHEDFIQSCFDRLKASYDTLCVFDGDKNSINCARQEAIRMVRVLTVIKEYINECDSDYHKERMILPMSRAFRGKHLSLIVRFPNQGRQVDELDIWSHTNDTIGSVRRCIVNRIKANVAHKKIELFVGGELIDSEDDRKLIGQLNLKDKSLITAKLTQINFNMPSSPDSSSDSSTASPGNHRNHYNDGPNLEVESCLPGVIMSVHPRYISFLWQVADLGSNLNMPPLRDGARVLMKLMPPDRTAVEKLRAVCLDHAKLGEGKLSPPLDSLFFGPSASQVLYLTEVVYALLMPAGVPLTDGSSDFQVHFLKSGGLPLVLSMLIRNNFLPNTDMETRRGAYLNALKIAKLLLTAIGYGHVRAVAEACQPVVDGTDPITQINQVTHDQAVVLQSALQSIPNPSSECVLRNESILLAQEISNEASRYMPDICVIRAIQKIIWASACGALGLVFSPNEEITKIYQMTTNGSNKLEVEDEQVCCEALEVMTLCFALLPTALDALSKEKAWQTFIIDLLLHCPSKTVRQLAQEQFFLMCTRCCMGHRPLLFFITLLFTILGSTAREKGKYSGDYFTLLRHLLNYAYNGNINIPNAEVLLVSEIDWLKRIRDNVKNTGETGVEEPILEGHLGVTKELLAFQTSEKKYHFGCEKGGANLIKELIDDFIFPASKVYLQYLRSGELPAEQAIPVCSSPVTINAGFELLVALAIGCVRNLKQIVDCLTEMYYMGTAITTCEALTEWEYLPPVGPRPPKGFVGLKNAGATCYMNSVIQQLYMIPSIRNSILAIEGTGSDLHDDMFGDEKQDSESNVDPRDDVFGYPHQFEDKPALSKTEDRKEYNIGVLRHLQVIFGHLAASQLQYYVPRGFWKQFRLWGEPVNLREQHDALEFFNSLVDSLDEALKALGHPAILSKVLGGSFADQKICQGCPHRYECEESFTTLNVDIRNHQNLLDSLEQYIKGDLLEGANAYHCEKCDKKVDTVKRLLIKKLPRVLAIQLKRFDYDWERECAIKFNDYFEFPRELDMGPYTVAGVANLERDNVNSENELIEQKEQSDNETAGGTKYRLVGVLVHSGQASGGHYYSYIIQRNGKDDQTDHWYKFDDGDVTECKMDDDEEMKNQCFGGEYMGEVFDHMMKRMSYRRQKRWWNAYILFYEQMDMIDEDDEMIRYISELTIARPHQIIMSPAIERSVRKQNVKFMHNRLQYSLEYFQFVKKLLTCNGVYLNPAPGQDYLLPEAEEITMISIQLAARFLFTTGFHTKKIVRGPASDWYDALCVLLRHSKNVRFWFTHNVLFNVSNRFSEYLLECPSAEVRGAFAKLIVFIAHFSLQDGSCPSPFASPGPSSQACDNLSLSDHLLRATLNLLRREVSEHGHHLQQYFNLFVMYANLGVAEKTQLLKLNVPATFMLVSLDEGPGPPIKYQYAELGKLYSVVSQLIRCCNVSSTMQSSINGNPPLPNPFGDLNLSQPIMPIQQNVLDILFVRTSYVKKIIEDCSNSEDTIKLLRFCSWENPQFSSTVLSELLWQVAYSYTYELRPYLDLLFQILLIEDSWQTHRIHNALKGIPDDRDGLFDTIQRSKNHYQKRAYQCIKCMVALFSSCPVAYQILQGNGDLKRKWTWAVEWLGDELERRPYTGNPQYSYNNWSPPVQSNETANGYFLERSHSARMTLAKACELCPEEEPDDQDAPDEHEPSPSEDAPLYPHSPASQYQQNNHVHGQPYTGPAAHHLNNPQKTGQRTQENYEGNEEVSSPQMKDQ

B1: ID2 (co-transfected / co-expressed in 293T cells) (other)
chain: MKAFSPVRSVRKNSLSDHSLGISRSKTPVDDPMSLLYNMNDCYSKLKELVPSIPQNKKVSKMEILQHVIDYILDLQIALDSHPTIVSLHHQRPGQNQASRTPLTTLNTDISILSLQASEFPSELMSNDSKALCG
notes: ID2 was amplified from Jurkat-derived cDNA; The methods describe only a C-terminal Flag version in pRK2001
As for B1, the binding result in experiment [1] is given as “binds”; in experiment [2], “no binding”; in experiment [3], “no binding”.
